Test results from US20240344040A1, “PROKARYOTIC AND EUKARYOTIC CELLS WITH BIOSYNTHESIZED SULFOTYROSINE FOR GENETIC INCORPORATION” (William Marsh Rice University, priority 2023, published 2024).
Non-standard residues stand in square brackets, D forms with d. sY = N[C@@H](Cc1ccc(OS(=O)(=O)O)cc1)C(=O)O

Molecular target: thrombin
Test: chromogenic thrombin amidolytic activity assay; tight-binding model (Morrison equation)

B1: madanin-1 with a single sulfotyrosine at Tyr35 (peptide)
chain: MYPERDSAKEGNQEQERALHVKVQKRTDGDADYDE[sY]EEDGTTPTPDPTAPTAKPRLRGNKPHHHHHH
In the case of B1, the Ki is reported as 6.1 nM.

B2: chimadanin with a single biosynthesized sulfotyrosine at Tyr28 (peptide)
chain: MQPKEKTKGVEVEGNPATLISARQMDVSYDEYEDNGPDVIPGEPAKPRGGPKNGAASGKFDQIPDFSSESHHHHHHH
modifications: sulfotyrosine at Tyr28 (counted without the initiator Met; residue 29 of SEQ ID NO: 107 as printed)
For B2, the Ki was 0.6 nM.

B3: wildtype chimadanin (peptide)
chain: MQPKEKTKGVEVEGNPATLISARQMDVSYDEYEDNGPDVIPGEPAKPRGGPKNGAASGKFDQIPDFSSESHHHHHHH
For B3, the Ki was 12.9 nM.

B4: chimadanin with a single biosynthesized sulfotyrosine at Tyr31 (peptide)
chain: MQPKEKTKGVEVEGNPATLISARQMDVSYDEYEDNGPDVIPGEPAKPRGGPKNGAASGKFDQIPDFSSESHHHHHHH
modifications: sulfotyrosine at Tyr31 (counted without the initiator Met; residue 32 of SEQ ID NO: 107 as printed)
In the case of B4, the Ki is reported as 1.5 nM.

B5: chimadanin doubly sulfated at both Tyr28 and Tyr31 (peptide)
chain: MQPKEKTKGVEVEGNPATLISARQMDVSYDEYEDNGPDVIPGEPAKPRGGPKNGAASGKFDQIPDFSSESHHHHHHH
modifications: sulfotyrosine at Tyr28 and Tyr31 (counted without the initiator Met; residues 29 and 32 of SEQ ID NO: 107 as printed)
B5 showed a Ki of 0.1 nM.

B6: wildtype madanin-1 (peptide)
chain: MYPERDSAKEGNQEQERALHVKVQKRTDGDADYDEYEEDGTTPTPDPTAPTAKPRLRGNKPHHHHHH
For B6, the Ki was 16 nM.

B7: madanin-1 with a single sulfotyrosine at Tyr32 (peptide)
chain: MYPERDSAKEGNQEQERALHVKVQKRTDGDAD[sY]DEYEEDGTTPTPDPTAPTAKPRLRGNKPHHHHHH
B7 gave a Ki of 1.3 nM.

B8: madanin-1 sulfated at both Tyr32 and Tyr35 (peptide)
chain: MYPERDSAKEGNQEQERALHVKVQKRTDGDAD[sY]DE[sY]EEDGTTPTPDPTAPTAKPRLRGNKPHHHHHH
For B8, the Ki was 0.5 nM.
